Measured values as given in patent EP2974737A1 (Ablynx N.V., dated 2016).

Experiments:
Test in all cases: SPR, interference factor immobilized; % of Fig. 9 reference
[1] = biological target: T1, purified interference factor(s) from Donor C (human)
T1 construct: the text names the donors 8, 19 and 30; also called interference in serum from Donor C

[2] = biological target: T2, purified interference factor(s) from Donor B (human)
T2 construct: the text names the donors 8, 19 and 30; also called interference in serum from Donor B

[3] = biological target: T3, purified interference factor(s) from Donor A (human)
T3 construct: also called interference in serum from Donor A

| Binder | interference binding, % of Reference Sequence [1] [%] | interference binding, % of Reference Sequence [2] [%] | interference binding, % of Reference Sequence [3] [%] |
| --- | --- | --- | --- |
| SEQ ID NO: 85 (VHH) VHH: EVQLVESGGGSVQPGGSLRLSCAASRSIGRLDRMGWYRHRPGEPRELVATITGGSSINYGDSVKGRFTISIDNSKNTVYLQMNSLRPEDTAVYYCNFNKYVTSRDTWGQGTLVQVGG | 42 | 5 | 46 |
| SEQ ID NO: 86 (VHH) VHH: EVQLVESGGGSVQPGGSLRLSCAASRSIGRLDRMGWYRHRPGEPRELVATITGGSSINYGDSVKGRFTISIDNSKNTVYLQMNSLRPEDTAVYYCNFNKYVTSRDTWGQGTLVQVSS | 86 | 6 | 76 |
| SEQ ID NO: 87 (VHH) VHH: EVQLVESGGGSVQPGGSLRLSCAASRSIGRLDRMGWYRHRPGEPRELVATITGGSSINYGDSVKGRFTISIDNSKNTVYLQMNSLRPEDTAVYYCNFNKYVTSRDTWGQGTLVTVGG | 39 | 5 | 51 |

Continued, values first:

| interference binding, % of Reference Sequence [1] [%] | interference binding, % of Reference Sequence [2] [%] | interference binding, % of Reference Sequence [3] [%] | Binder |
| --- | --- | --- | --- |
| 17 | 5 | 14 | SEQ ID NO: 89 (VHH) VHH: EVQLVESGGGSVQAGGSLRLSCAASRSIGRLDRMGWYRHRPGEPRELVATITGGSSINYGDSVKGRFTISIDNSKNTVYLQMNSLRPEDTAVYYCNFNKYVTSRDTWGQGTLVQVGG |
| 11 | 5 | 1 | SEQ ID NO: 88 (VHH) VHH: EVQLVESGGGSVQPGGSLRLSCAASRSIGRLDRMGWYRHRPGEPRELVATITGGSSINYGDSVKGRFTISIDNSKNTVYLQMNSLRPEDTAVYYCNFNKYVTSRDTWGQGTLVQVSS |
